# Measurements taken from PMC4279232.
# Target: recombinant GST-FAM21 356–600
# Assay: SPR
substance,measurement,value
MBP-CCDC93 (448–631) (from UniProt Q567U6 448-631) (domain or fragment),Kd,0.3 to 0.6 nM
